The record followed here is publication PMC6684798, “Structural basis for the target specificity of actin histidine methyltransferase SETD3” (Nature Communications, 2019).

The assay concerns the target T1, SETD3 WT (Homo sapiens, UniProt Q86TU7).
T1 construct: GST (cleaved yes); made in house; host or cells: Escherichia coli BL21(DE3) CodonPlus
T1 sequence (Q86TU7 1-594): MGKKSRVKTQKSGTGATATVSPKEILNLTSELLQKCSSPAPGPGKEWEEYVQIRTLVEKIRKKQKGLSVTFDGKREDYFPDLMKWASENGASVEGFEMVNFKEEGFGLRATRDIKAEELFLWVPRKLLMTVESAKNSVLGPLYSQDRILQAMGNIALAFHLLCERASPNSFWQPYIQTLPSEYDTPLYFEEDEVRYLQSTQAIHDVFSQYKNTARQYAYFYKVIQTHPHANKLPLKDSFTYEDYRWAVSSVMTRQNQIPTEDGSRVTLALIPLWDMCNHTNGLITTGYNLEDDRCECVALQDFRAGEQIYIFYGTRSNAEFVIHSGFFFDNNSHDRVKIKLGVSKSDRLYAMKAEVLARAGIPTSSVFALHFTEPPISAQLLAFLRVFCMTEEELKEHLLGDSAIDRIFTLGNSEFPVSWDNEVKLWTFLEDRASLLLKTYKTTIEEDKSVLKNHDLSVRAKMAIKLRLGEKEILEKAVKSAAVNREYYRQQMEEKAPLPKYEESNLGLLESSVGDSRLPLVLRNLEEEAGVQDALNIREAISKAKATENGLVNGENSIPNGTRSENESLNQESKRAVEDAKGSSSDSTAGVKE
Kind of assay: Steady-state kinetics of SETD3 WT on K73 peptides (Fig. 3b, c; pH 10.5, 37 °C, 40 µM SAM). It counts as biochemical. As to the method:
Fig. 3 Kinetics of SETD3 on H73 and K73 peptides. a Comparison of activities of three variants (WT, N255A, and N255V) on H73(66–80) peptide. The assays were performed at room temperature (~22 °C) and pH 8.0 using [WT] = 0.18 μM, [N255A] = 0.18 μM, and [N255V] = 0.72 μM. b Comparison of SETD3 WT activities on two K73 peptides (residues 66–80 and 66–88). The assays were performed at 37 °C and pH 10.5 using [WT] = 3 and 15 μM, respectively, for the long and short peptides. c Comparison of activities of three variants (N255A, N255V, and WT) on K73(66–88) peptide. The assays were performed at 37 °C and pH 10.5 using [N255A] = 90 nM, [N255V] = 0.72 μM and [WT] = 4 μM. Data represent the mean ± SD of N number of independent determinations (N = 3 for the WT and N = 2 for the mutants) performed in duplicate. Source data are provided as a Source Data file. d, e Mass spectrometry analysis of K73(66–88) methylation kinetic showing representative spectra at various time points for N255A variant (panel d) and SETD3 WT enzyme (panel e). The assays were performed at 37 °C and pH 10.5 using 3 μM for both N255A and WT. f In vitro methylation reactions with SETD3, indicated full-length actin proteins, and radiolabeled methyl donor (^3H-SAM). Right, Reactions were resolved by SDS–PAGE and activity was visualized by autoradiography. […] The first column head is 'SETD3', and the substrate peptide is printed only on the plot axis. / Panel b: the first column head is 'SETD3 (WT)', and the rows are K73 peptide substrates.
Recombinant human SETD3 (pXC2003) was expressed as a GST-fusion[22] in Escherichia coli BL21(DE3) CodonPlus^TM cells (Stratagene). The SETD3 mutants at residue 255 (N255A; pXC2093 and N255V; pXC2094) were generated with Q5 Site-Directed Mutagenesis Kit (New England Biolabs), confirmed by sequencing and the same protocol for expression and purification were followed. Briefly, the purification was conducted in a BIO-RAD NGC^TM system using a three-column chromatography of glutathione-sepharose, HiTrap Q-HP and Superdex 200. The GST tag was removed by PreScisson Protease (purified in-house). The purified SETD3 proteins at a concentration ~25–35 mg/ml were kept at −80 °C in storage buffer for future use [20 mM Tris (pH 8.0), 200 mM NaCl, 5% glycerol, and 0.5 mM tris (2-carboxyethyl) phosphine (TCEP)].
A reaction mixture contained 20 mM Tris/HCl (pH 8.0) or 20 mM glycine/NaOH (pH 10.5), 50 mM NaCl, 0.1 mg/ml BSA, 1 mM DTT, 0.18–15 µM SETD3 (as indicated in Fig. 3), 40 µM SAM and varying concentration of peptides. The reactions were carried out at room temperature (~22 °C) or 37 °C for different time (20 min to 3 h) with a total volume of 20 µl, and terminated by the addition of TFA to 0.1% (v/v) for Tris/HCl (pH 8.0) or 0.4% (v/v) for Glycine/NaOH (pH 10.5). Samples terminated with the addition of 0.4% (v/v) TFA were then further diluted 4× with buffer 20 mM Tris/HCl (pH 8.0), 50 mM NaCl, 0.1 mg/ml BSA, 1 mM DTT to reduce the TFA concentration. The dependence of the velocity of product formation per enzyme on substrate concentration was analyzed according to the Michaelis–Menten equation.

The mark [1] stands for this setting: pH 10.5, 37 °C, [WT] = 3 and 15 μM for long and short peptide (Fig. 3b), 4 μM (Fig. 3c).
The mark [2] stands for this setting: pH 10.5, 37 °C, [WT] = 3 and 15 μM for long and short peptide (Fig. 3b), 4 μM (Fig. 3c), mean ± SD.

In the case of “K73(66–80): K73-containing (H73K) actin peptide, residues 66–80 (TLKYPIEKGIVTNWD; UniProt P60709 66-80, looked up, variant H73K)”, the “affinity for the substrate weaker than for H73 substrate” value (Km, K73(66–80) vs. H73(66–80)) is on record as ~ 20 -fold. Where the note is “kcat, K73(66–80) (pH 10.5, 37 °C) vs. H73(66–80) (pH 8.0, ~22 °C)”, the “maximum reaction rate slower than for H73 substrate” value is given as ~ 40 -fold. In addition, for the setting “kcat/Km, K73(66–80) vs. H73(66–80)”, the “loss in catalytic efficiency” value is given as “more than 1000 -fold”. Besides, the kcat/Km under setting [1] was determined as 0.361 M⁻¹ s⁻¹. In addition, under setting [2], the Km was determined as 430 µM and the kcat came to 0.00017 s⁻¹.

With “K73(66–88): K73-containing actin H73K peptide, residues 66–88 (TLKYPIEKGIVTNWDDMEKIWHH; UniProt P60709 66-88, looked up, variant H73K)”, the “increase of catalytic efficiency on K73 by lengthened peptide” value (factor in kcat/Km, long (66–88) vs. short (66–80) peptide) is given as ~ 100. Also, under setting [1], the kcat/Km was determined as 36.1 M⁻¹ s⁻¹. Further, under setting [2], the Michaelis-Menten constant (Km) was 5.2 µM. In addition, the “Km compared with H73(66–80) peptide” value (pH 10.5, K73(66–88) vs. H73(66–80)) was “about four-fold better”.
